Measurements reported in patent US20190338026A1 (University of Texas, published 2019).

T1: LAIR1 on LAIR1 reporter cells (human, UniProt Q6GTX8 22-165, limits assumed)
T1 chain: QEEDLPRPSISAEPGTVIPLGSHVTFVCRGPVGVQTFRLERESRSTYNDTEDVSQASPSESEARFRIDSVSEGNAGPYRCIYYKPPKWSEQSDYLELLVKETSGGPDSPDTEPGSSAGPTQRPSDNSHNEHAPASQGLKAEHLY

T2: human LAIR1 extracellular domain (ECD) protein with 6 HIS tag at the C-terminus (human, UniProt Q6GTX8 22-165)
T2 construct: Produced recombinantly in HEK293 cells; the whole entry is named here; also called LAIR1 ECD; LAIR1-ECD
T2 chain: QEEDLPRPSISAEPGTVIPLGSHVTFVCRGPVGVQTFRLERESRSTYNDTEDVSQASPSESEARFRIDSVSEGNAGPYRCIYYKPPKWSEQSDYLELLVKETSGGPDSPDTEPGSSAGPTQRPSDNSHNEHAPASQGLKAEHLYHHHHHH

T3: recombinant LAIR1 (human, UniProt Q6GTX8 22-165, limits assumed)
T3 construct: also called LAIR1 (Octet analyte)
T3 chain: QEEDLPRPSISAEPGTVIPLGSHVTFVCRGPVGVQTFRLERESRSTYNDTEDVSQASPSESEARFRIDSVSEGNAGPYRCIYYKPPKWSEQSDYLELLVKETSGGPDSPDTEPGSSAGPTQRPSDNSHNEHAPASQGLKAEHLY


Key:
[1] = biological target: T1, LAIR1 on LAIR1 reporter cells
[2] = biological target: T1, LAIR1 on LAIR1 reporter cells
[3] = biological target: T1, LAIR1 on LAIR1 reporter cells; assay: cell-based or functional assay
[4] = biological target: T2, human LAIR1 extracellular domain (ECD) …; assay: ELISA, LAIR1 ECD coated
Outline: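 Coat ECD; block; add mAb, 3-fold ×12, 0-10 μg/ml, 45 min 37° C; wash PBS-Tween 0.05%; anti-rabbit F(ab′)2-HRP; TMB 10 min, 2N H2SO4 stop; A450. 4-PL fit → EC₅₀, 3 repeats.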

[5] = biological target: T2, human LAIR1 extracellular domain (ECD) …; assay: ELISA, LAIR1 ECD coated, mAb titrated, anti-rabbit HRP
Outline: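 Binding is measured on immobilized recombinant LAIR1 ECD, with antibodies (IgG or scFv formats) applied as a twelve-point threefold dilution series up to 10 μg/ml for 45 minutes at 37° C.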

recombinant LAIR1 = biological target: T3, recombinant LAIR1; assay: BLI (Octet), mAb on protein A sensor, recombinant LAIR1 0.1-200 nM, 1:1 fit
Method: To perform the assay, antibody (30 μg/mL) was loaded to the proteins A sensor for 4 min, followed by a short buffering to establish baseline in kinetics buffer. The loaded sensors were then exposed to a series of recombinant LAIR1 concentrations (0.1-200 nM) for kinetic binding detection. Background subtraction was used to correct the sensor drifting. All experiments were performed with shaking at 1,000 rpm. Background wavelength shifts were measured from reference sensors that were loaded only with antibody. ForteBio's data analysis software was used to fit the data to a 1:1 binding model to extract an association rate and dissociation rate. The KD was calculated using the ratio […] using ForteBio's data analysis software 7.0.

[6] = biological target: T1, LAIR1 on LAIR1 reporter cells; assay: cell-based or functional assay

Row | GFP+% of LAIR1 reporter cells, K562 coculture, no Ab (row Collagen I-ctrl) [1] | GFP+% of LAIR1 reporter cells, collagen I coated, no Ab (row collagen I-ctrl) [2] | GFP+% of LAIR1 reporter cells, collagen I coated, soluble Ab and K562 cells [3] | EC50 (read off the curve) [4] | EC50 [5] | Kd (recombinant LAIR1) | koff (recombinant LAIR1) | kon (recombinant LAIR1) | GFP+% of LAIR1 reporter cells, collagen I coated, soluble Ab [6] | Molecule
1 | 42.5% | 31.3% | – | – | – | – | – | – | – | collagen I (ligand)
2 | – | – | 0.891% | ~0.03 µg/mL | 0.21 nM | 0.127 nM | 2.41e-05 s⁻¹ | 190000 M⁻¹ s⁻¹ | 1.11% | LA-121 (antibody, V domains shown, Rabbit monoclonal IgG) VH: EQSVEESGGRLVTPGTPLTLTCTASGFSLYKYNIQWVRQAPGKGLEYIGASTYAGYTYYASWAIGRVTISRTSTTVDLKMTSPTTEDTATYFCARHIDGDYSGYALWGPGTLVTISS VL: ELDLTQTPASVSAAVGGTVTIKCQASQSIDTWFGWYQQKPGQSPKLLIYGASKLASGVPPRFKGSGSGTEFTLTISDLECADAATYYCQNTYYGVRYLGGAFGGGTEVEIK
3 | – | – | – | ~0.05 µg/mL | 0.3 nM | 5.58 nM | 0.00222 s⁻¹ | 397000 M⁻¹ s⁻¹ | – | LA-258-3 (antibody, V domains shown, Rabbit monoclonal IgG) VH: QSVKESGGDLVKPEGSLTLTCKASGFSFSNSYYMCWVRQAPGKGLEWIACIYTGSTSGTYYASWVNGRFTISKTPSTTVTLQMTSLTVADTATYFCSRKLTNFNGAYLDLWGPGTLVTISS VL: ELVLTQTPASVEAAVGGTVTINCQASQSISNLLAWYQQKPGQPPKVLIYKASTLASGVPSRFKGSGSGTDFTLTISDLECADAATYYCQANNGGSDNNFGGGTEVVVKA
